Assay [1] addresses T1, human CD154 (human, UniProt P29965 113-261, limits assumed).
T1 construct: also called CD154 antigen; CD40L
T1 sequence (looked up): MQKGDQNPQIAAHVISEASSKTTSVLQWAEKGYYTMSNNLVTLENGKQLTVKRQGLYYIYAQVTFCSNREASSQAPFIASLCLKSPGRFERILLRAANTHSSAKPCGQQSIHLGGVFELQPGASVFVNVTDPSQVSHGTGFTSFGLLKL
The assay is described as follows: SPR, Biacore 3000, 25 C; antibody immobilized, CD154 antigen flowed over; average n = 6. The method, then:
(§1) Binding experiments were performed on Biacore […] at 25° C. […] Binding of antigen to the tested antibodies was monitored in real time. From the observed kₒₙ, the koff and KD was determined for each variant.
(§2) Scoring analysis was performed using specific analyte concentrations. At the tested concentration, binding should be observed even if the ligand binding affinity is relatively weak. Full kinetics may be performed by known methods. For the molecular interactions with fast off rate, steady state kinetics may be used to determine the KD value.
On the technique in general: Surface plasmon resonance follows binding to a sensor surface in real time, without labels.

Assay [2] concerns the target T2, CD154 expressed on cells (CD154 expressing Jurkat cells; T cell CD154) (UniProt P29965 1-261, limits assumed).
T2 construct: whole, on cells; also called CD154 (expressed on Jurkat cells)
T2 sequence (looked up): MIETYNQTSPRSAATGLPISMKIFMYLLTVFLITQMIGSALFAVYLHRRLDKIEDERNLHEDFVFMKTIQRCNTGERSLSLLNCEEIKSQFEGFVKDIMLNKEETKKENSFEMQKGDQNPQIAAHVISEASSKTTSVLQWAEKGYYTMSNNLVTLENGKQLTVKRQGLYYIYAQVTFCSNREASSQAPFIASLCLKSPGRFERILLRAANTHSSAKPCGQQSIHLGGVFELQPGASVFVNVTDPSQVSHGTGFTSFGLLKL
In words: binding to CD40L (CD154) expressing Jurkat cells, readout % normalized mean MFI (panel title 'CD40L Jurkat Binding'; legend paragraph 14 calls it a BIAcore assay).

Assay [3] deals with T2, CD154 expressed on cells (CD154 …). The assay is described as follows: binding to CD154 expressing Jurkat cells (legend calls it BIAcore binding assays), FIG. 3.
For assay [4], the target named is T1, human CD154. The assay is described as follows: SPR, Biacore 3000, 25 C; antibody immobilized, CD154 antigen flowed over; average n = 6; exponent sign is a misprint in the cell ('+04'); value taken as E-04, as fixed by the same row's KD x Ka (3.62E-11 x 4.11E+06 = 1.49E-04). The method, then:
as §1, §2

For orientation: Kd means a measure of binding affinity in units of concentration. Lower therefore signals tighter binding. One may read the koff as the first-order rate constant of dissociation. A lower koff goes with a long-lived complex. The term kon denotes a measure of how fast the partners come together. Low readings indicate slow association, high ones fast association. By EC50 (read off the curve) is commonly meant the concentration that produces a half-maximal response.

B1: IDEC-131, humanized anti-human CD154 IgG1 antibody (antibody, V domains shown)
VH: EVQLQESGPGLVKPSETLSLTCTVSGDSITNGFWIWIRKPPGNKLEYMGYISYSGSTYYNPSLKSRISISRDTSKNQFSLKLSSVTAADTGVYYCACRSYGRTPYYFDFWGQGTTLTVSS
VL: DIVMTQSPSFLSASVGDRVTITCKASQNVITAVAWYQQKPGKSPKLLIYSASNRYTGVPDRFSGSGSGTDFTLTISSLQPEDFADYFCQQYNSYPYTFGGGTKLEIK
notes: Humanized human IgG1 derived from mouse antibody 24-31
Take B1: in the assay with human CD154 [1], the “Fold improvement in KD (compared to IDEC131)” value (“Fold improvement in KD” for short) was 1 fold, the dissociation constant Kd was 0.151 nM, the off-rate (koff) was found to be 0.000525 s⁻¹ and the kon turned out to be 3.47e+06 M⁻¹ s⁻¹. For the same molecule, in assay [2], the concentration giving a half-maximal response (EC50 (read off the curve)) was approximately 4 nM.

B2: variant 27, humanized anti-human CD154 antibody derived from IDEC-131 (antibody, V domains shown)
VH: EVQLQESGPGLVKPSETLSLTCTVSGDSITNGFWIWIRKPPGNKLEYMGYISYSGSTYYNPSLKSRISISRDTSKNQFSLKLSSVTAADTGVYYCAYRSYGRTPYYFDYWGQGTTLTVSS
VL: DIVMTQSPSFLSASVGDRVTITCKASQHLGHAVAWYQQKPGKSPKLLIYSASNRYTGVPDRFSGSGSGTDFTLTISSLQPEDFADYFCQQYDDYPYTFGGGTKLEIK
Take B2: in the assay with human CD154 [1], the “Fold improvement in KD” value stood at 4.5 fold; the affinity, expressed as Kd, was 0.0336 nM; the off-rate (koff) amounted to 0.00012 s⁻¹; the kon came out at 3.58e+06 M⁻¹ s⁻¹.

B3: INX021 (variant 21), humanized anti-human CD154 IgG1 antibody derived from IDEC-131 (antibody, V domains shown)
VH: EVQLQESGPGLVKPSETLSLTCTVSGDSITNGFWIWIRKPPGNKLEYMGYISYSGSTYYNPSLKSRISISRDTSKNQFSLKLSSVTAADTGVYYCAYRSYGRTPYYFDYWGQGTTLTVSS
VL: DIVMTQSPSFLSASVGDRVTITCKASSNLGHAVAWYQQKPGKSPKLLIYSASNRYTGVPDRFSGSGSGTDFTLTISSLQPEDFADYFCQQYDDYPYTFGGGTKLEIK
On to B3, for which, in the assay with human CD154 [1], the “Fold improvement in KD” value turned out to be 4.7 fold, binding was characterised by a dissociation constant (Kd) of 0.0289 nM, the koff amounted to 0.000128 s⁻¹ and the on-rate constant (kon) was determined as 4.42e+06 M⁻¹ s⁻¹. The “fold increase in binding affinity compared to IDEC-131” value in assay [3] is approximately 5 fold.

B4: variant 28, humanized anti-human CD154 antibody derived from IDEC-131 (antibody, V domains shown)
VH: EVQLQESGPGLVKPSETLSLTCTVSGDSITNGFWIWIRKPPGNKLEYMGYISYSGSTYYNPSLKSRISISRDTSKNQFSLKLSSVTAADTGVYYCAYRSYGRTPYYFDYWGQGTTLTVSS
VL: DIVMTQSPSFLSASVGDRVTITCKAPSSLGHAVAWYQQKPGKSPKLLIYSASNRYTGVPDRFSGSGSGTDFTLTISSLQPEDFADYFCQQYDDYPYTFGGGTKLEIK
Regarding B4, in the assay with human CD154 [1], the “Fold improvement in KD” value was found to be 4.8 fold, the Kd was found to be 0.0315 nM, the koff turned out to be 0.000115 s⁻¹ and the kon came to 3.65e+06 M⁻¹ s⁻¹.

B5: variant 22, humanized anti-human CD154 antibody derived from IDEC-131 (antibody, V domains shown)
VH: EVQLQESGPGLVKPSETLSLTCTVSGDSITNGFWIWIRKPPGNKLEYMGYISYSGSTYYNPSLKSRISISRDTSKNQFSLKLSSVTAADTGVYYCAYRSYGRTPYYFDYWGQGTTLTVSS
VL: DIVMTQSPSFLSASVGDRVTITCKASSNLGNAVAWYQQKPGKSPKLLIYSASNRYTGVPDRFSGSGSGTDFTLTISSLQPEDFADYFCQQYDDYPYTFGGGTKLEIK
With B5, in the assay with human CD154 [1], the “Fold improvement in KD” value is 5.2 fold, the dissociation constant Kd is 0.0262 nM, the koff was found to be 0.000117 s⁻¹ and the association rate constant (kon) is 4.48e+06 M⁻¹ s⁻¹.

B6: variant 25, humanized anti-human CD154 antibody derived from IDEC-131 (antibody, V domains shown)
VH: EVQLQESGPGLVKPSETLSLTCTVSGDSITNGFWIWIRKPPGNKLEYMGYISYSGSTYYNPSLKSRISISRDTSKNQFSLKLSSVTAADTGVYYCAYRSYGRTPYYFDYWGQGTTLTVSS
VL: DIVMTQSPSFLSASVGDRVTITCKASQNLNHAVAWYQQKPGKSPKLLIYSASNRYTGVPDRFSGSGSGTDFTLTISSLQPEDFADYFCQQYDDYPYTFGGGTKLEIK
On to B6, for which, in the assay with human CD154 [1], the “Fold improvement in KD” value was 3.9 fold; the affinity, expressed as Kd, was 0.0362 nM; the association rate constant (kon) is 4.11e+06 M⁻¹ s⁻¹. In the assay with human CD154 [4], the koff was 0.000149 s⁻¹.

B7: variant 29, humanized anti-human CD154 antibody derived from IDEC-131 (antibody, V domains shown)
VH: EVQLQESGPGLVKPSETLSLTCTVSGDSITNGFWIWIRKPPGNKLEYMGYISYSGSTYYNPSLKSRISISRDTSKNQFSLKLSSVTAADTGVYYCAYRSYGRTPYYFDYWGQGTTLTVSS
VL: DIVMTQSPSFLSASVGDRVTITCKGNQPLGHAVAWYQQKPGKSPKLLIYSASNRYTGVPDRFSGSGSGTDFTLTISSLQPEDFADYFCQQYDDYPYTFGGGTKLEIK
Regarding B7, in the assay with human CD154 [1], the “Fold improvement in KD” value stood at 4.2 fold, the Kd turned out to be 0.0344 nM, the koff was found to be 0.000133 s⁻¹ and the kon was 3.86e+06 M⁻¹ s⁻¹.

B8: variant 23, humanized anti-human CD154 antibody derived from IDEC-131 (antibody, V domains shown)
VH: EVQLQESGPGLVKPSETLSLTCTVSGDSITNGFWIWIRKPPGNKLEYMGYISYSGSTYYNPSLKSRISISRDTSKNQFSLKLSSVTAADTGVYYCAYRSYGRTPYYFDYWGQGTTLTVSS
VL: DIVMTQSPSFLSASVGDRVTITCKGSSPLGHAVAWYQQKPGKSPKLLIYSASNRYTGVPDRFSGSGSGTDFTLTISSLQPEDFADYFCQQYDDYPYTFGGGTKLEIK
notes: also called combination #23
Consider B8, for which, in the assay with human CD154 [1], the “Fold improvement in KD” value is 4.2 fold; the affinity, expressed as Kd, was 0.0421 nM; the koff was 0.000141 s⁻¹; the on-rate (kon) is 3.35e+06 M⁻¹ s⁻¹.

B9: variant 26, humanized anti-human CD154 antibody derived from IDEC-131 (antibody, V domains shown)
VH: EVQLQESGPGLVKPSETLSLTCTVSGDSITNGFWIWIRKPPGNKLEYMGYISYSGSTYYNPSLKSRISISRDTSKNQFSLKLSSVTAADTGVYYCAYRSYGRTPYYFDYWGQGTTLTVSS
VL: DIVMTQSPSFLSASVGDRVTITCKASQHLGTAVAWYQQKPGKSPKLLIYSASNRYTGVPDRFSGSGSGTDFTLTISSLQPEDFADYFCQQYDDYPYTFGGGTKLEIK
With B9, in the assay with human CD154 [1], the “Fold improvement in KD” value came to 2.5 fold; the affinity, expressed as Kd, was 0.0576 nM; the association rate constant (kon) came out at 2.03e+06 M⁻¹ s⁻¹.

B10: variant 24, humanized anti-human CD154 antibody derived from IDEC-131 (antibody, V domains shown)
VH: EVQLQESGPGLVKPSETLSLTCTVSGDSITNGFWIWIRKPPGNKLEYMGYISYSGSTYYNPSLKSRISISRDTSKNQFSLKLSSVTAADTGVYYCAYRSYGRTPYYFDYWGQGTTLTVSS
VL: DIVMTQSPSFLSASVGDRVTITCKAPQNLGTAVAWYQQKPGKSPKLLIYSASNRYTGVPDRFSGSGSGTDFTLTISSLQPEDFADYFCQQYDDYPYTFGGGTKLEIK
For the molecule B10, in the assay with human CD154 [1], the “Fold improvement in KD” value is 4.9 fold; the affinity, expressed as Kd, was 0.0364 nM; the koff is 0.000135 s⁻¹; the association rate constant (kon) turned out to be 3.7e+06 M⁻¹ s⁻¹.

B11: variant 31, humanized anti-human CD154 antibody derived from IDEC-131 (antibody, V domains shown)
VH: EVQLQESGPGLVKPSETLSLTCTVSGDSITNGFWIWIRKPPGNKLEYMGYISYSGSTYYNPSLKSRISISRDTSKNQFSLKLSSVTAADTGVYYCAYRSYGRTPYYFDYWGQGTTLTVSS
VL: DIVMTQSPSFLSASVGDRVTITCKANQPLGHAVAWYQQKPGKSPKLLIYSASNRYTGVPDRFSGSGSGTDFTLTISSLQPEDFADYFCQQYDDYPYTFGGGTKLEIK
Take B11: in the assay with human CD154 [1], the “Fold improvement in KD” value was determined as 4.8 fold, binding was characterised by a dissociation constant (Kd) of 0.0341 nM, the koff is 0.000123 s⁻¹ and the kon amounted to 3.61e+06 M⁻¹ s⁻¹.

B12: variant 30, humanized anti-human CD154 antibody derived from IDEC-131 (antibody, V domains shown)
VH: EVQLQESGPGLVKPSETLSLTCTVSGDSITNGFWIWIRKPPGNKLEYMGYISYSGSTYYNPSLKSRISISRDTSKNQFSLKLSSVTAADTGVYYCAYRSYGRTPYYFDYWGQGTTLTVSS
VL: DIVMTQSPSFLSASVGDRVTITCKAGHSLGTAVAWYQQKPGKSPKLLIYSASNRYTGVPDRFSGSGSGTDFTLTISSLQPEDFADYFCQQYDDYPYTFGGGTKLEIK
Take B12: in the assay with human CD154 [1], the “Fold improvement in KD” value worked out at 4.4 fold, the Kd turned out to be 0.0329 nM, the off-rate constant (koff) is 0.00014 s⁻¹ and the kon was 4.24e+06 M⁻¹ s⁻¹.

The values above are taken from US20180193454A1 (IMMUNEXT, published 2018).
